Conditions in all cases: source organism: Hepatitis B virus
The target in one assay is HLA-A*03:01. The experiment in a line: IEDB peptide-MHC binding, cellular MHC/competitive/fluorescence; ≥ and ≤ were set here for values at or beyond the usual limits of such assays.
A further assay has as its target HLA-A*11:01. The assay is described as above.
For another assay, the target named is HLA-A*31:01. The assay is described as above.
For a further assay, the target named is HLA-A*68:01. Described as above.
The target of a further assay is HLA-A*68:02. The description is as above.
Assay [1] has as its target HLA-A*02:01. In words: IEDB peptide-MHC binding, purified MHC/competitive/radioactivity; ≥ and ≤ were set here for values at or beyond the usual limits of such assays.
In assay [2] the target is HLA-A*02:02. The description is as above.
The target in assay [3] is HLA-A*02:03. The description is as above.
Assay [4] concerns the target HLA-A*02:06. The description is as above.
The target of assay [5] is HLA-A*02:01. The experiment in a line: IEDB peptide-MHC binding, cellular MHC/competitive/fluorescence; ≥ and ≤ were set here for values at or beyond the usual limits of such assays.
Assay [6] has as its target HLA-A*02:02. The description is as above.
In assay [7] the target is HLA-A*02:03. Described as above.
The target in assay [8] is HLA-A*02:06. Described as above.

These results are taken from the Immune Epitope Database (IEDB).

For GLSRYVARV, the IC50 – broadly, the concentration needed to halve the response being measured – with HLA-A*03:01 is 7.23 µM; in the assay with HLA-A*11:01, not below 70 µM; with HLA-A*31:01 it was 24.7 µM; with HLA-A*68:01, not below 70 µM; with HLA-A*68:02, 8.86 µM; with HLA-A*02:01 [1] it was 0.154 µM. Besides, the concentration for half-maximal inhibition (IC50) with HLA-A*02:02 [2] is 0.011 µM; in the assay with HLA-A*02:03 [3], 0.0015 µM; with HLA-A*02:06 [4], 1.17 µM.

As to HQLDPAFRA, the IC50 is 6.45 µM with HLA-A*02:01 [5]; 16 µM with HLA-A*02:02 [6]; 55.9 µM with HLA-A*02:03 [7]; not below 70 µM with HLA-A*03:01; 14.7 µM with HLA-A*11:01; 40.6 µM with HLA-A*31:01. Also, the IC50 with HLA-A*68:01 was not below 70 µM; in the assay with HLA-A*68:02, not below 70 µM; with HLA-A*02:06 [4], 0.118 µM.

With KVGAGAFGL, the IC50 in the assay with HLA-A*02:01 [5] is 11 µM; with HLA-A*02:02 [6], 9.12 µM; with HLA-A*02:03 [7], 34.7 µM; in the assay with HLA-A*03:01 it was 25 µM; with HLA-A*11:01 it was not below 70 µM; with HLA-A*31:01, 12.6 µM. The figures for the IC50 in the assay with HLA-A*68:01, with HLA-A*68:02 and with HLA-A*02:06 [4] were not below 70 µM, not below 70 µM and 1.14 µM, respectively.

As to LLVLLDYQGM, the IC50 is 5.58 µM with HLA-A*02:03 [7]; 19.5 µM with HLA-A*03:01; not below 70 µM in the assay with HLA-A*11:01; 7.26 µM with HLA-A*31:01; not below 70 µM in the assay with HLA-A*68:01; 61.1 µM in the assay with HLA-A*68:02. The figures for the IC50 with HLA-A*02:02 [2] and in the assay with HLA-A*02:06 [4] were 0.799 µM and 1.81 µM, respectively.

As to PLLPIFFCL, the IC50 with HLA-A*03:01 was not below 70 µM; in the assay with HLA-A*11:01, not below 70 µM; with HLA-A*31:01, 9.87 µM; in the assay with HLA-A*68:01, 44.2 µM; with HLA-A*68:02, 33.1 µM; with HLA-A*02:01 [1], 0.111 µM. The IC50 was found to be 0.063 µM in the assay with HLA-A*02:02 [2], 0.637 µM with HLA-A*02:03 [3] and 0.087 µM with HLA-A*02:06 [4].

Take RILTIPQSL: the IC50 with HLA-A*02:01 [5] was 39.1 µM; in the assay with HLA-A*02:02 [6], 6.45 µM; in the assay with HLA-A*02:03 [7] it was 9.77 µM; in the assay with HLA-A*02:06 [8], 5.95 µM; in the assay with HLA-A*03:01, not below 70 µM; in the assay with HLA-A*11:01, not below 70 µM. The figures for the IC50 with HLA-A*31:01, with HLA-A*68:01 and in the assay with HLA-A*68:02 were 36.9 µM, not below 70 µM and not below 70 µM, respectively.

As for SLYSILSPFL, the IC50 in the assay with HLA-A*03:01 is 14.3 µM; in the assay with HLA-A*11:01, not below 70 µM; in the assay with HLA-A*31:01 it was 5.67 µM; with HLA-A*68:01, 64 µM; with HLA-A*68:02, 6.67 µM; in the assay with HLA-A*02:01 [1] it was 0.0082 µM. The IC50 with HLA-A*02:02 [2] was determined as 0.001 µM; with HLA-A*02:03 [3] it was 0.013 µM; with HLA-A*02:06 [4] it was 0.076 µM.

Regarding SMYPSCCCT, the IC50 with HLA-A*02:01 [5] is 6.43 µM; with HLA-A*02:02 [6] it was 10.3 µM; with HLA-A*02:03 [7], 5.52 µM; with HLA-A*02:06 [8], 9.31 µM; with HLA-A*03:01, not below 70 µM; with HLA-A*11:01, not below 70 µM. Besides, the IC50 with HLA-A*31:01 is 68.4 µM; with HLA-A*68:01 it was not below 70 µM; with HLA-A*68:02, not below 70 µM.

Regarding VLLDYQGML, the IC50 is 22.6 µM with HLA-A*02:03 [7]; not below 70 µM with HLA-A*03:01; 35.2 µM with HLA-A*11:01; 12.8 µM with HLA-A*31:01; not below 70 µM in the assay with HLA-A*68:01; not below 70 µM in the assay with HLA-A*68:02. Further, the values for the IC50 with HLA-A*02:01 [1], with HLA-A*02:02 [2] and with HLA-A*02:06 [4] were 0.081 µM, 0.053 µM and 0.679 µM, respectively.

For the sequence YLVSFGVWI, the IC50 with HLA-A*03:01 is 15.2 µM; with HLA-A*11:01, not below 70 µM; with HLA-A*31:01 it was not below 70 µM; with HLA-A*68:01, not below 70 µM; with HLA-A*68:02, 38.2 µM; with HLA-A*02:01 [1], 0.173 µM. In addition, the IC50 with HLA-A*02:02 [2] was 0.14 µM; in the assay with HLA-A*02:03 [3], 0.311 µM; with HLA-A*02:06 [4], 1.84 µM.

In the case of YQGMLPVCPL, the IC50 in the assay with HLA-A*03:01 is 24 µM; with HLA-A*11:01, not below 70 µM; in the assay with HLA-A*31:01, 11.4 µM; in the assay with HLA-A*68:01, not below 70 µM; with HLA-A*68:02, 5.34 µM; with HLA-A*02:01 [1] it was 0.543 µM. The results for the IC50 in the assay with HLA-A*02:02 [2], with HLA-A*02:03 [3] and with HLA-A*02:06 [4] were 0.035 µM, 0.02 µM and 0.165 µM, respectively.
